Molecular target: T1, PrimPol1-354 (polymerase domain, wild type) (human, UniProt Q96LW4 1-354)
T1 sequence: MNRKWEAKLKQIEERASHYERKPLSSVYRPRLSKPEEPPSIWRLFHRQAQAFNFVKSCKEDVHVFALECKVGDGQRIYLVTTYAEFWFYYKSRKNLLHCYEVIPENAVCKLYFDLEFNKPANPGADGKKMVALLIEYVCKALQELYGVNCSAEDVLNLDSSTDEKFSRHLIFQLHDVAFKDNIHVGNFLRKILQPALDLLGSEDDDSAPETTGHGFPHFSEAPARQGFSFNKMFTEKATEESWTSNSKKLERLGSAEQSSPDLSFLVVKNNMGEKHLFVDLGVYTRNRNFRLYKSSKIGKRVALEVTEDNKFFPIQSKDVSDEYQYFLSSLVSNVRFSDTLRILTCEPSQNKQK
Assay: EMSA; 10 mM Mg2+; text gives 0.67 uM, Figure 5 legend 0.69 uM; EMSA: 60 nM DNA, 10 mM Bis-Tris-Propane-HCl pH 7.0, 10 mM MgCl2, 1 mM DTT, 25 C, 60 min; 5% polyacrylamide gel in 0.5x TBE
Details: protein: recombinant; label: 5'-Hex on strand 1 (HP-20); 20 bp duplex, 5' overhang 30 nt on template strand (S12), other end blunt

B1: Overhanging DNA substrate (HP-20 primer / ND-50 TemplateTT) (dsDNA)
DNA 1: TGTCGTCTGTTCGGTCGTTC
DNA 2: CGCGCAGGGCGCACAACAGCCTTGAAGACCGAACGACCGAACAGACGACA
Kd: 690 nM
